Test results published in patent publication US20230340151A1 (Pfizer, published 2023).
Read-outs that look alike come from different tables or passages of the source.

How the values were obtained:
Human CD3 epsilon-delta = molecular target: T1, Human CD3 epsilon-delta (human); test: SPR, anti-human IgG capture, 25 C
T1 construct: Single-chain epsilon-linker-delta with His6; also called huCD3
T1 chain: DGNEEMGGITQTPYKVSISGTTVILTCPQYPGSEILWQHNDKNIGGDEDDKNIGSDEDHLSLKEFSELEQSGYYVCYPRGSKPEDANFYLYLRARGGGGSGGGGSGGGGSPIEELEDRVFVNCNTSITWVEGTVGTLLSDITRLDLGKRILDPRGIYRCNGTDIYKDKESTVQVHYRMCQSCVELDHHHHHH

Human GUCY2C ECD-muIgG2a = molecular target: T2, Human GUCY2C ECD-muIgG2a (human); test: huCD3-huGUCY2C sandwich ELISA (CD3 coated)
T2 construct: also called human GUCY2c ECD-mouse IgG2a Fc fusion protein; huGUCY2c-mIgG2a

[1] = molecular target: T3, Murine GUCY2C-ECD cleaved (mouse, UniProt Q3UWA6 20-433); test: SPR, GUCY2c directly immobilized, 25 C
T3 sequence: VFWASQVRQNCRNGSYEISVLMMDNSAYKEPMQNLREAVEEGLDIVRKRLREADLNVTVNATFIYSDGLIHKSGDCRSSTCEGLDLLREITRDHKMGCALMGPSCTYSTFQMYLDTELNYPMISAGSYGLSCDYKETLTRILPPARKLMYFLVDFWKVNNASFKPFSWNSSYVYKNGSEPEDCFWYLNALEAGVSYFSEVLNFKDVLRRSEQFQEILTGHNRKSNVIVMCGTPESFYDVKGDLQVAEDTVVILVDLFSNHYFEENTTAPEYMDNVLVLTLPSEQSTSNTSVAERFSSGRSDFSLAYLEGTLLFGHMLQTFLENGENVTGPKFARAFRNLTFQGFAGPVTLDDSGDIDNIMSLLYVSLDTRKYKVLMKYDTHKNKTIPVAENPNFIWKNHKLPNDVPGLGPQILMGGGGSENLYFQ

[2] = molecular target: T4, Cynomolgus GUCY2C-ECD Cleaved (cynomolgus, UniProt P25092 24-430 (human entry)); test: SPR, anti-human IgG capture, 25 C
T4 construct: also called CyGUCY2C
T4 chain: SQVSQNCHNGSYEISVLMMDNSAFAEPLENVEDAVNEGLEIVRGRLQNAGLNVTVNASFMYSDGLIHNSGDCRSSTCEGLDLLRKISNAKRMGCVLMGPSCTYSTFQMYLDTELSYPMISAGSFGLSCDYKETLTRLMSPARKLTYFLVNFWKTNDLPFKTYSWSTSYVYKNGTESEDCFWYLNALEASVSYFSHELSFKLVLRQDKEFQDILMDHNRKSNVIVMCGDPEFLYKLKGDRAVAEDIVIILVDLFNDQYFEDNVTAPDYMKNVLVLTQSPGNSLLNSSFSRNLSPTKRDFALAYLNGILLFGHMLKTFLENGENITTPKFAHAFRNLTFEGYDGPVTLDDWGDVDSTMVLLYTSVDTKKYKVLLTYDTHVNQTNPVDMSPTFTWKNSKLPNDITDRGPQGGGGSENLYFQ

[3] = molecular target: T5, Human CD3 on naive human T cells (human, UniProt P07766 23-207); test: flow cytometry titration on naive human T cells (PE-A Geo Mean against Ab in nM)
T5 construct: whole, on cells; on cells it stands in the CD3/TCR complex

[4] = molecular target: T6, Human GUCY2c on tumor cells (T84, HT55) (human, UniProt P25092 24-1073); test: flow cytometry titration on T84 tumor cells (PE-A Geo Mean against Ab in nM)
T6 construct: Endogenous receptor; also called GUCY2c expressing cell lines; T84 cells expressing human GUCY2c

[5] = molecular target: T6, Human GUCY2c on tumor cells (T84, HT55); test: cell-based or functional assay
[6] = molecular target: T7, Cynomolgus CD3 epsilon-delta (cynomolgus); test: SPR, printed anti-His capture, 25 C (Table 33D)
T7 chain: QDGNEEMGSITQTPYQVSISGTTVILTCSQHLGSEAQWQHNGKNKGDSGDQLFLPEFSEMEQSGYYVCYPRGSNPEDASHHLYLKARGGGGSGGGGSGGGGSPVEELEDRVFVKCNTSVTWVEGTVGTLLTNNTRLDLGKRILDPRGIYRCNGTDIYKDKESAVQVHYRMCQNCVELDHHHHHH

[7] = molecular target: T6, Human GUCY2c on tumor cells (T84, HT55); test: cell-based or functional assay; remark: listed apart in the source
[8] = molecular target: T8, Human GUCY2C full length (SEQ ID NO: 224), recombinant protein (human, UniProt P25092 24-430, limits assumed); test: SPR, GUCY2c directly immobilized, 25 C
T8 construct: also called huGUCY2C; biotinylated human GUCY2c

[9] = molecular target: T8, Human GUCY2C full length (SEQ ID NO: …); test: SPR, anti-human IgG capture, 25 C
GUCY2C-1608 = molecular target: T9, GUCY2C-1608; test: competition DELFIA ELISA: peptide 19 in solution competes with the plate-bound full GUCY2c extracellular domain for GUCY2C-1608
T9 construct: also called GUCY2c CD3 bispecific

T8 sequence (P25092 24-430 F281L limits assumed): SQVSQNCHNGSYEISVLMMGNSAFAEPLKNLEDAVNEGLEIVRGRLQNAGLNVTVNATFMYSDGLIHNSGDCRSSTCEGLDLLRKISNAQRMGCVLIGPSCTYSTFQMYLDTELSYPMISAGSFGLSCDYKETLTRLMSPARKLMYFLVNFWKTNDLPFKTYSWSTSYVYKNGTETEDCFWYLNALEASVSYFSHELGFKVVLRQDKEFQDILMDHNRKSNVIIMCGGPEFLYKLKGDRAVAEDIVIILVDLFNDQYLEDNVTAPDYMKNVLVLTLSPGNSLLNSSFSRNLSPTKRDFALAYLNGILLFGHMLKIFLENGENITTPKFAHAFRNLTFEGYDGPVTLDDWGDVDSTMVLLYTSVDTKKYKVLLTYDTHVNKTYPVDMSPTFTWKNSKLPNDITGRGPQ
T6 sequence (P25092 24-1073 limits assumed): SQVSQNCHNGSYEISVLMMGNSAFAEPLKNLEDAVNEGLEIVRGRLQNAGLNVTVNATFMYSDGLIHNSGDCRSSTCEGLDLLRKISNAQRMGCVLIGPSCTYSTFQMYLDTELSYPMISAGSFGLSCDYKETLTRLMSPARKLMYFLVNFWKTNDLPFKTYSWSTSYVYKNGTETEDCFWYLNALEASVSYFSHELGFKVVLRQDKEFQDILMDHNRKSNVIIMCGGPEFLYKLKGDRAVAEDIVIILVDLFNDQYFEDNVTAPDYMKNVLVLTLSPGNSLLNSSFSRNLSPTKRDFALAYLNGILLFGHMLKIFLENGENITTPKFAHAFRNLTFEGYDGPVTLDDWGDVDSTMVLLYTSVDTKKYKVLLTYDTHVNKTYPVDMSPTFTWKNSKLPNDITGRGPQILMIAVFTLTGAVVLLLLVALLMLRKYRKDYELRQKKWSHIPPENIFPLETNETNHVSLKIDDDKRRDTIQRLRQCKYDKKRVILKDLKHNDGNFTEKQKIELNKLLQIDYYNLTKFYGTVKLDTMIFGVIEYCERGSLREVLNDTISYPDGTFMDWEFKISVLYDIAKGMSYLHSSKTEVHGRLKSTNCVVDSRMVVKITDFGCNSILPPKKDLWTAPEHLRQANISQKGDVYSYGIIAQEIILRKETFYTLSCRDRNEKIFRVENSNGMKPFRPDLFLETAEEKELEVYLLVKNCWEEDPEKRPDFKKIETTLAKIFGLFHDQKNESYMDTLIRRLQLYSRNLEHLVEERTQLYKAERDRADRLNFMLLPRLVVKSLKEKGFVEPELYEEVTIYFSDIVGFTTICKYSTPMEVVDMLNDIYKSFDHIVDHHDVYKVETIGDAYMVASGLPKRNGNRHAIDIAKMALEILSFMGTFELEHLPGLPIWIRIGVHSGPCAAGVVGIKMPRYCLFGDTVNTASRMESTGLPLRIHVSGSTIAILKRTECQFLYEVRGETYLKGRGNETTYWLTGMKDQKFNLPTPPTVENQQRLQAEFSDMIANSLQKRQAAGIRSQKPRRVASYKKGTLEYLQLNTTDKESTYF
T2 sequence (chain, as listed by the source limits assumed): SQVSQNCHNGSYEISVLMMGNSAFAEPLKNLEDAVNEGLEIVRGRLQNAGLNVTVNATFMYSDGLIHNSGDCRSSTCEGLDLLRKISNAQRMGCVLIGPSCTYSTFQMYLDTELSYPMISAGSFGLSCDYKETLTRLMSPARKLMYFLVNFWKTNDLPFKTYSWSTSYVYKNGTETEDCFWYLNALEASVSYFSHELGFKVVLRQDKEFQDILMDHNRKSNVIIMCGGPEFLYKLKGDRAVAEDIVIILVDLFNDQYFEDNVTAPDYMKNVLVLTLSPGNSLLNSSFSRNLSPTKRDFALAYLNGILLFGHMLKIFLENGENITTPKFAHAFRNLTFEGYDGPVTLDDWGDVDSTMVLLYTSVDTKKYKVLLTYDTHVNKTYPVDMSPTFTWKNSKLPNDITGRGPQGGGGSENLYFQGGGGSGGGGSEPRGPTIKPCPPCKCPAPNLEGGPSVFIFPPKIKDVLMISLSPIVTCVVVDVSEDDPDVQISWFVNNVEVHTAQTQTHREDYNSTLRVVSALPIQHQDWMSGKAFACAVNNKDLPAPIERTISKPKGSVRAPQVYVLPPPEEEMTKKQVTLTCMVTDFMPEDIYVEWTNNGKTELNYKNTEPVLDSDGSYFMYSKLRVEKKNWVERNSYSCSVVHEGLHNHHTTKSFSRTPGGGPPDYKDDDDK

B1: GUCY2C-0247 (bispecific antibody)
chain 1: DIQLTQSPSSLSASVGDRVTITCRASESVDYYGTSLMQWYQQKPGKPPKLLIYAASNVESGVPSRFSGSGSGTDFTLTISSLQPEDFATYYCQQTRKVYTFGQGTKLEIKGGGSGGGGEVQLVESGGGLVQPGGSLRLSCAASGFTFSDYYMTWVRQAPGKGLEWVAFIRNRARGYTSDHNPSVKGRFTISRDNAKNSLYLQMNSLRAEDTAVYYCARDRPSYYVLDYWGQGTTVTVSSGCPPCPAPEAAGAPSVFLFPPKPKDTLMISRTPEVTCVVVDVSHEDPEVKFNWYVDGVEVHNAKTKPREEQYNSTYRVVSVLTVLHQDWLNGKEYKCKVSNKALPAPIEKTISKAKGQPREPQVCTLPPSREEMTKNQVSLWCLVKGFYPSDIAVEWESNGQPENNYKTTPPVLDSDGSFFLYSKLTVDKSRWQQGNVFSCSVMHEALHNHYTQKSLSLSPG
chain 2: DIVMTQSPDSLAVSLGERATINCKSSQSLFNVRSRKNYLAWYQQKPGQPPKLLISWASTRESGVPDRFSGSGSGTDFTLTISSLQAEDVAVYYCKQSYDLFTFGSGTKLEIKGGGSGGGGEVQLVESGGGLVQPGGSLRLSCAASGYTFTSYWMHWVRQAPGKGLEWIGEIKPSNGLTNYIEKFKNRFTISVDKAKNSAYLQMNSLRAEDTAVYYCTRTITTTEGYWFFDVWGQGTLVTVSSGCPPCPAPEAAGAPSVFLFPPKPKDTLMISRTPEVTCVVVDVSHEDPEVKFNWYVDGVEVHNAKTKPREEQYNSTYRVVSVLTVLHQDWLNGKEYKCKVSNKALPAPIEKTISKAKGQPREPQVYTLPPCREEMTKNQVSLSCAVKGFYPSDIAVEWESNGQPENNYKTTPPVLDSDGSFFLVSKLTVDKSRWQQGNVFSCSVMHEALHNHYTQKSLSLSPG
Kd (Human CD3 epsilon-delta): 3.34 nM | koff (Human CD3 epsilon-delta): 0.000985 s⁻¹ | kon (Human CD3 epsilon-delta): 295000 M⁻¹ s⁻¹ | EC50 (Human GUCY2C ECD-muIgG2a): 0.705 nM | Kd [1]: 12.2 nM | koff [1]: 0.00183 s⁻¹ | kon [1]: 150000 M⁻¹ s⁻¹ | Kd [2]: 4.35 nM | koff [2]: 0.000369 s⁻¹ | kon [2]: 85500 M⁻¹ s⁻¹ | Kd [3]: 6.18 nM | Kd [4]: 1.32 nM | T84 tumor cell EC50 (T cell cytotoxicity, E:T 5:1) [5]: 0.07 nM | Kd [6]: 3.61 nM | koff [6]: 0.001 s⁻¹ | kon [6]: 280000 M⁻¹ s⁻¹ | T84 tumor cell EC50 (T cell cytotoxicity, E:T 5:1) [7]: 0.07 nM | Kd [8]: 3.01 nM | koff [8]: 0.000433 s⁻¹ | kon [8]: 144000 M⁻¹ s⁻¹ | Kd [9]: 4.65 nM | koff [9]: 0.000457 s⁻¹ | kon [9]: 98200 M⁻¹ s⁻¹

B2: GUCY2C_ECD Peptide 19 (peptide)
peptide: NSGDCRSSTCEGLDLLRKIS
notes: also called GUCY2c peptide 19; GUCY2c-ECD peptide number 19
IC50 (read off the curve) (GUCY2C-1608): ~100 nM
